In patent US6861508B2, “Transcriptional intermediary factor-2” (Institut National de la Sante et de la Recherche Medicale, priority 1996, dated 2005):

How the values were obtained:
GAL4 reporter = test: GAL4 DBD-TIF2 fusion CAT reporter transactivation assay; type: cell-based; conditions: Cos-1 and/or HeLa cells
Procedure: (a) HeLa cells were cotransfected with 1 μg (17m)5-βG-CAT and 10 μg GAL(1-147) or 1,3 and 10 μg GAL(1-147)-TIF2.1, respectively.
(c) Analysis of the transcriptional activity of GAL-TIF2 fusion proteins. Cos-1 and HeLa cells were transfected with 3 lag of plasmids expressing different regions of TIF2 fised to the DNA-binding domain of the yeast transcription factor GALA together with 1 μg of the (7m)5-G-CAT reporterplasmid. CAT assays were performed as described (Bocquel, M. T. et al., Nucl Acids Res. 17:2581-2595 (1989)). Quantitative data on CAT reporter expression were obtained either by phosphoimager analysis (BAS2000, Fuji) of ^14C-labeled CAT reaction products separated by thin-layer chromatography, or using the CAT ELISA Kit (Boehringer Mannheim). In all cases, CAT activities were normalized to the β-galactosidase concentrations resulting from cotransfection of 1 μg of pCMVPGal (gift from T. Lerouge) as internal control. Fold inductions above the GAL4 DBD value are indicated. The mean and standard deviation of at least three experiments are shown. A representative Western blot, illustrating the expression levels of the GAL4-TIF2 fusion proteins, expressed from 10 μg of the corresponding expression vectors, is shown on the left.
(b) Transcriptional activation of TIF2 AF-1 mutants. Cos-1 and HeLa cells were cotransfected with 3 μg of plasmids expressing different mutants of the TIF2 AF-1 fused to the DNA-binding domain of the yeast transcription factor GAL4 together with 1 μg of the (17m)5-G-CAT reporter plasmid. Fold inductions above the activation seen with the GAL4 DBD alone are indicated. The values represent the mean of at least three experiments.
(a) Transcriptional activation by TIF2.13 and TIF2.13 mutants. Cos-1 and HeLa cells were cotransfected with 3 μg of plasmids expressing the TIF2.13 region and the indicated TIF2.13 mutants fused to the DNA-binding domain of the yeast transcription factor GALA together with 1 μg of the (17m)5-G-CAT reporter plasmid. Fold inductions above the GAL4 DBD 1-fold value are indicated. The mean and standard deviation obtained from at least four experiments are shown. The expression levels of the GAL4-TIF2.13 fusion proteins were confirmed by western blotting (data not shown).
Transient transfections of HeLa and Cos-1 cells were performed as described (Gronemeyer et al., (1987); Bocquel, M. T. et al., Nucl. Acids Res. 17:2581-2595 (1989)).

[1] = tested on: CBP (residues 1872 to 2165); test: GST-CBP pull-down of TIF2 polypeptides; type: binding
Procedure: (d) Mapping of the CBP-interacting domain of TIF2. GST puld own experiments were performed with ^35S-labeled in-vitro-translated TIF2 polypeptides and bacterially produced GST and GST-CBP (expressing CBP residues 1872 to 2165).
(c) Interaction of TIF2 AF-1 mutants with CBP in vitro. GST pull-down experiments were performed with ^35S-labeled in-vitro-translated GAL-TIF2 fusion proteins and bacterially produced GST and GST-CBP.
(c) Interaction of TIF2.13 wildtype and TIF2.13 mutants with CBP in vitro. GST pull-down experiments were performed with ^35S-labeled in-vitro-translated VP16-TIF2.13 polypeptides and bacterially produced GST and GST-CBP.
(§1) Furthermore, it was reported that SRC-1, which belongs to the same gene family as TIF2, interacts with CBP and p300 (Kamei, Y. et al., Cell 85:403-414 (1996); Yao, T. P. et al., Proc. Natl. Acad. Sci. USA 93:10626-10631 (1996); Hanstein, B., et al., Proc. Natl. Acad Sci USA 93:11540-11545 (1996)). Using GST-fusion protein-based interaction and animal cell-based two hybrid assays, we therefore analyzed whether TIF2 could also interact with CBP. […] A GST-CBP fusion protein was expressed in E. coli and used for puU-down assays with in vitro translated TIF2 polypeptides (FIG. 7d).

GAL-CBP = test: two hybrid analysis of CBP-TIF2 interaction in HeLa cells; type: cell-based
Procedure: (e) Two hybrid analysis of the CBP-TIF2 interaction in mammalian cells in vivo. HeLa cells were transfected with 0.2 μg of the GAL4 or GALA-CBP (expressing CBP residues 1872 to 2165) expression vectors together with 0.2 μg of the VP16 or VPI6-TF2 expression vectors in the presence of 2 μg of (17m)5-TATA-CAT reporter plasmid. Fold induction relative to the GAL-CBP activity is indicated. The mean of three experiments is shown; in each case, values varied by less than ±20%.
HeLa cells were transfected with 0.2 μg of GAL4 or GAL-CBP expression vectors together with 0.2 μg of VP16 or VP16-TIF2.13 expression vectors in the presence of 1 μg of (17m)5-TATA-CAT reporter plasmid. Data are represented as fold induction of the activity seen with GAL-CBP alone. The mean and standard, deviation obtained from ten experiments are shown. The expression levels were confirmed by Western blotting with antibodies directed against GAL4 DBD and VP16 AAD (data not shown).
as §1

histone = histone acetylase activity of purified TIF2 fragments; type: biochemical; conditions: bacterially-expressed purified fragment
Source text: TIF2 can apparently fulfill at least two mediator functions, (i) as a “bridging factor” between the AF-2 function of nuclear receptors and CBP via its AD1 activation domain and (ii) as a transcriptional mediator through as yet unknown CBP binding-independent route(s) via its AD2 function.

ER (HEGO) = test: yeast PL3 (ERE)3-URA3 reporter, OMP decase activity, ER; type: cell-based, human; conditions: with estradiol
Source text: (§2) FIG. 11. The TIF2.1 coactivator fragment efficiently stimulates the ligand-dependent AF-2 of ER, RAR and RXR in yeast. No stimulatory effect of TIF2.1 on the isolated AF-1 of ER (HE15) is observable. Plasmids expressing different regions of hERα (white), hRARα (grey) and mRXRα (black) fused to the ER DBD (hERα(C)) were introduced into the yeast reporter strain PL3 (α) together with TIF2.1 as indicated. […] OMP decase activities determined on each cell-free extract are expressed in nmoyrnin/mg protein; the mean and standard deviation of at least four experiments are shown.
(§3) We therefore investigated whether TIF2 could enhance transcriptional activation by various NR constructs expressed in S. cerevisiae. Both, NRs and TIF2.1 were expressed from multicopy plasmids in the yeast strain PL3 (a), which contains a URA3 reporter gene under the control of three estrogen response elements ((ERE)3-URA3; Pierrat, B. et al., Gene 119:237-245 (1992)).
(§4) In yeast, the hERa constructs were expressed from the following YEp90-based plasmids: HEGO (hERα, YEp90-HEGO, amino acids 1-595), HE15 (YEp90-HE15, amino acids 1-282), and HEG19 (YEp90-HEG19, amino acids 179-595) (all Pierrat, B. et al., Gene 119:237-245 (1992)), HE179-338 (YEp90-HE179-338; Pierrat, B. et al., Gene 143:193-200 (1994)). […]

RXRα AF-2 = test: yeast PL3 (ERE)3-URA3 reporter, OMP decase activity, RXRα; type: cell-based, mouse; conditions: with ligand
Source text: as §2, §3, §4

RARα LBD = test: yeast PL3 (ERE)3-URA3 reporter, OMP decase activity, RARα; type: cell-based, human; conditions: absence of ligand
Source text: as §2, §3, §4

B1: TIF2.1: cytoplasmic TIF2 coactivator fragment, amino acids 624 to 1287 of SEQ ID NO:2 (protein)
chain: ERADGQSRLHDSKGQTKLLQLLTTKSDQMEPSPLASSLSDTNKDSTGSLPGSGSTHGTSLKEKHKILHRLLQDSSSPVDLAKLTAEATGKDLSQESSSTAPGSEVTIKQEPVSPKKKENALLRYLLDKDDTKDIGLPEITPKLERLDSKTDPASNTKLIAMKTEKEEMSFEPGDQPGSELDNLEEILDDLQNSQLPQLFPDTRPGAPAGSVDKQAIINDLMQLTAENSPVTPVGAQKTALRISQSTFNNPRPGQLGRLLPNQNLPLDITLQSPTGAGPFPPIRNSSPYSVIPQPGMMGNQGMIGNQGNLGNSSTGMIGNSASRPTMPSGEWAPQSSAVRVTCAATTSAMNRPVQGGMIRNPAASIPMRPSSQPGQRQTLQSQVMNIGPSELEMNMGGPQYSQQQAPPNQTAPWPESILPIDQASFASQNRQPFGSSPDDLLCPHPAAESPSDEGALLDQLYLALRNFDGLEEIDRALGIPELVSQSQAVDPEQFSSQDSNIMLEQKAPVFPQQYASQAQMAQGSYSPMQDPNFHTMGQRPSYATLRMQPRPGLRPTGLVQNQPNQLRLQLQHRLQAQQNRQPLMNQISNVSNVNLTLRPGVPTQAPINAQMLAQRQREILNQHLRQRQMHQQQQVQQRTLMMRGQGLNMTPSMVAPSGMPATMS
- transcriptional activation of GAL4 reporter by GAL4 DBD fusion (GAL4 reporter): strongly transactivated
- binding to GST-CBP in vitro [1]: also interacted with GST-CBP
- interaction with GAL-CBP, two hybrid (GAL-CBP): scored positive
- histone acetylase activity (histone): none
- effect on transcriptional activity of ER (ER (HEGO)): further enhanced
- effect on AF-2 activity of liganded RXRα (RXRα AF-2): stimulated
- effect on transactivation by RARα LBD (RARα LBD): very efficiently enhanced
